The text below walks through data of patent US20180134781A1 (Regeneron, published 2018).

The target in assay [1] is T1, human ANGPTL8 expressed with C-terminal mouse IgG2a Fc tag (human).
T1 construct: also called hANGPTL8-mFc; hANGPTL8.mFc
T1 chain: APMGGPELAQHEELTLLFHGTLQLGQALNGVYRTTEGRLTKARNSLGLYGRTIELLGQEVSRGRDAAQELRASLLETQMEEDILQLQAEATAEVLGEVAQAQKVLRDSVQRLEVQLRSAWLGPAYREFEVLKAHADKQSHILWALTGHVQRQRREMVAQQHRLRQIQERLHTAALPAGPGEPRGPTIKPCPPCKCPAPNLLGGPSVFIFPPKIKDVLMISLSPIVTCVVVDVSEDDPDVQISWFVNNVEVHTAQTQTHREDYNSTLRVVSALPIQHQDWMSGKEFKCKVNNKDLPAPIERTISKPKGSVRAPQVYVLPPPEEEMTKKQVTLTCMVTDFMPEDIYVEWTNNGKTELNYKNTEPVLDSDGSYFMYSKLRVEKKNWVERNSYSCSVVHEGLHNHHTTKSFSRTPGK
The assay is described as follows: BLI (Octet HTX), hANGPTL8-mFc captured on AMC sensor. As for the experimental part: (§1) Binding of ANGPTL8 antibodies to human and monkey ANGPTL8 proteins was investigated using Bio-layer Interferometry with an Octet HTX biosensor platform (ForteBio, A Division of Pall Life Sciences). All experiments were performed at 25° C. in 10 mM HEPES pH 7.4, 150 mM NaCl, 0.05% v/v Surfactant Tween-20, and 1 mg/ml BSA with the reaction multiwell plate agitated at 1000 rpm. Approximately 1.6 nm of human ANGPTL8 produced with a C-terminal mouse IgG2a Fc tag (hANGPTL8-mFc; SEQ ID NO: 340) or cynomolgus monkey ANGPTL8 produced with a C-terminal mouse IgG2a Fc tag (MfANGPTL8-mFc; SEQ ID NO: 341) was captured onto anti-mFc (AMC) Octet biosensors by submerging the sensors into wells containing 10 μg/mL of each protein for 4 minutes. Under the same conditions a negative control protein with the same mFc tag (hLDLR-mFc) was also coupled to the AMC sensor. All four sensors, […] and one blank, were then submerged into wells containing 100 nM of different ANGPTL8 monoclonal antibodies or an isotype control for 4 minutes.

The target in assay [2] is T2, monkey ANGPTL8 expressed with C-terminal mouse IgG2a Fc tag (cynomolgus monkey).
T2 construct: also called MfANGPTL8-mFc; mfANGPTL8-mFc
T2 chain: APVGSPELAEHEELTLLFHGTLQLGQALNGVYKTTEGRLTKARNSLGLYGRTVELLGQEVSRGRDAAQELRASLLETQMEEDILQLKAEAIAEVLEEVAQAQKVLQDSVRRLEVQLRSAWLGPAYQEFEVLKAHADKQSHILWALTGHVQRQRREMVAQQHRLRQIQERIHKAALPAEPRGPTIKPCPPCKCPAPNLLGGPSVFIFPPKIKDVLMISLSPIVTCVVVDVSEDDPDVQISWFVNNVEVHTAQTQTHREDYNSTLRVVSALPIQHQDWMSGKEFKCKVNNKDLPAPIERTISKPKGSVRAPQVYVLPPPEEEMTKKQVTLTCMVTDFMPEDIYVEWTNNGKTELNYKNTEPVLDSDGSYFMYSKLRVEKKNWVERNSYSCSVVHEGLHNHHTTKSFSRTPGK
The assay is described as follows: BLI (Octet HTX), MfANGPTL8-mFc captured on AMC sensor. As for the experimental part: as §1

For assay [3], the target named is T3, hLDLR-mFc (negative control protein with the same mFc tag) (human, UniProt P01130 22-788).
T3 construct: also called Irrelevant control; not shown: mFc tag ('the same mFc tag', mouse IgG2a Fc)
T3 sequence (P01130 22-788): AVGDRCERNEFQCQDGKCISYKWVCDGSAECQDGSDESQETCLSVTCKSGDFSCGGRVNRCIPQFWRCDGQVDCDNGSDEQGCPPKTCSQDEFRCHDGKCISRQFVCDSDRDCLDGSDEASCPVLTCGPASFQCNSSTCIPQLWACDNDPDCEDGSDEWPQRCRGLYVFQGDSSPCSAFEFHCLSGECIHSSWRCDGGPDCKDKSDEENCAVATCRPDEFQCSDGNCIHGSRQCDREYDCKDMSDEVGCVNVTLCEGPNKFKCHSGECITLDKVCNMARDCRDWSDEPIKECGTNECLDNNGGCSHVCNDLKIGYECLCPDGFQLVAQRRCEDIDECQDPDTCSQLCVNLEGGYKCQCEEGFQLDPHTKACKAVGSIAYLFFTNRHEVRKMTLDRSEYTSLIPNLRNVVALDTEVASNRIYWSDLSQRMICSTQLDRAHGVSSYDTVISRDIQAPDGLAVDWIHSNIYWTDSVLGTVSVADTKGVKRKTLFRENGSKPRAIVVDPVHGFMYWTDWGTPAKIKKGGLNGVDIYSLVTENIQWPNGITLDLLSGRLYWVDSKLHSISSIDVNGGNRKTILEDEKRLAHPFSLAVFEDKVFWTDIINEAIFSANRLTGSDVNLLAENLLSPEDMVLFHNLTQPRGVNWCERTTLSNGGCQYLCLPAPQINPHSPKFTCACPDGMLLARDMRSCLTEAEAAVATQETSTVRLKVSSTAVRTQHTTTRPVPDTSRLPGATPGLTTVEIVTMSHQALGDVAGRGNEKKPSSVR
Nature of the assay: BLI (Octet HTX), hLDLR-mFc captured on AMC sensor. As for the experimental part:
as §1

Another assay addresses T4, mouse ANGPTL8 (mouse, UniProt Q8R1L8 16-198, limits assumed).
T4 sequence (looked up): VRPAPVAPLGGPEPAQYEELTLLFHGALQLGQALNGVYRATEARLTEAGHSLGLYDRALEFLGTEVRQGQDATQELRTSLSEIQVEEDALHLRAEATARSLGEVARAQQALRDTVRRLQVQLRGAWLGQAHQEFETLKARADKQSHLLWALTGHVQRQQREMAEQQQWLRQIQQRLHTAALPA
The assay is described as follows: SPR.

The target in a further assay is T5, human ANGPTL3 (human, UniProt Q9Y5C1 17-460, limits assumed).
T5 construct: also called hANGPTL3
T5 sequence: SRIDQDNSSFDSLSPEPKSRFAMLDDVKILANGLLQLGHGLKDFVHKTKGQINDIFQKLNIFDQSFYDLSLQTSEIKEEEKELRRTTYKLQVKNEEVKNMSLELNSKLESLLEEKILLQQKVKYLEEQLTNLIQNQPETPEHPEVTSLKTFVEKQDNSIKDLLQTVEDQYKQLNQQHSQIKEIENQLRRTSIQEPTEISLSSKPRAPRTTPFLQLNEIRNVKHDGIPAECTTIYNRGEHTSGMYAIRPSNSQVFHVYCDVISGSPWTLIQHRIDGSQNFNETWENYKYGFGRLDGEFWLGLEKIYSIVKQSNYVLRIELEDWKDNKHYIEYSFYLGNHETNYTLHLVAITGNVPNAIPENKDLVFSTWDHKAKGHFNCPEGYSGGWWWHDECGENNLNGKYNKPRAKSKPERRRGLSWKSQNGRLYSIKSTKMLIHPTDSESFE
Nature of the assay: SPR.

For a further assay, the target named is T6, mouse ANGPTL3 (mouse, UniProt Q9R182 17-455, limits assumed).
T6 sequence (looked up): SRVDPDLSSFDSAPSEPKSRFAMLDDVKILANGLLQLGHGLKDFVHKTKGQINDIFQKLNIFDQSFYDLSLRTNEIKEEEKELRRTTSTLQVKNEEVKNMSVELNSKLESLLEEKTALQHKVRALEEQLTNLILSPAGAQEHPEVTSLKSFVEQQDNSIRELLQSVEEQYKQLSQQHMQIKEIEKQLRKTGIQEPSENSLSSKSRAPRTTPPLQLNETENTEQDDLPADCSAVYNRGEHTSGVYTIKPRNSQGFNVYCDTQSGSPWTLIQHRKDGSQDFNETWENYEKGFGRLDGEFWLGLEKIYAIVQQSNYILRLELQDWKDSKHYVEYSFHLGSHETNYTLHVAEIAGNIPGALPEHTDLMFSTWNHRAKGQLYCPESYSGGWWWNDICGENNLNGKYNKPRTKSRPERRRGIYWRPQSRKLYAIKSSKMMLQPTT
Nature of the assay: SPR.

In a further assay the target is T7, human ANGPTL4 (human, UniProt Q9BY76 26-406, limits assumed).
T7 construct: also called hANGPTL4
T7 sequence: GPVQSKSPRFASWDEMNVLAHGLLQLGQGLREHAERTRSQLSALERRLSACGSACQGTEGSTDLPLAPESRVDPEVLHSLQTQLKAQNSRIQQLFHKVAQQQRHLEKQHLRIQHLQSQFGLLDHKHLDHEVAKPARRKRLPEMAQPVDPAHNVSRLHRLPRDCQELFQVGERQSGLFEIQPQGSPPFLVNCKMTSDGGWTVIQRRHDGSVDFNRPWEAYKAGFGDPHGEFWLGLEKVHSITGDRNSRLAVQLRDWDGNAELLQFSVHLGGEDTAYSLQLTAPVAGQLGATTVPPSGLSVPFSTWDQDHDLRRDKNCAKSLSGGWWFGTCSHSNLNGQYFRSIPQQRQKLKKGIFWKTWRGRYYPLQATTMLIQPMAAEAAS
Nature of the assay: SPR.

Another assay concerns the target T8, mouse ANGPTL4 (mouse, UniProt Q9Z1P8 24-410, limits assumed).
T8 sequence (looked up): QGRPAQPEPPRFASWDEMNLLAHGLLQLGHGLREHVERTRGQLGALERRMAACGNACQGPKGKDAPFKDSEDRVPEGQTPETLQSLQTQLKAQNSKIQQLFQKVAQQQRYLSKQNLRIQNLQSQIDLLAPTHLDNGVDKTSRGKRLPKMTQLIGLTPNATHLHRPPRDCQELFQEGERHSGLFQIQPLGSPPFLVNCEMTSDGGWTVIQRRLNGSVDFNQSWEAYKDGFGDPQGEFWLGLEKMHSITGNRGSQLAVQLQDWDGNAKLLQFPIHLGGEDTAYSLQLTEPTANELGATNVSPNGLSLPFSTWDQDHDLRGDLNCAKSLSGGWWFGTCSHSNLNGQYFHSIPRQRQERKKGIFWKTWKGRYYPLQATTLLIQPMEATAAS
Nature of the assay: SPR.

B1: H4H15316P (antibody, human IgG4, V domains shown)
VH: EVQLVESGGGLVQPGRSLRLSCAASGFIFDDYDMHWVRQAPGKGLEWVSGISWNSGSKGYADSVKGRFTISRDNAKNSLYLQMNSLRAEDTALYYCTKGPWDYFDYWGQGTLVTVSS
VL: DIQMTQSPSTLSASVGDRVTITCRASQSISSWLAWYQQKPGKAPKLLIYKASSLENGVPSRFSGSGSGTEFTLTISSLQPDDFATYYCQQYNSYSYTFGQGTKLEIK
notes: human IgG4 Fc (H4H prefix)
Consider B1, for which the figures for the binding result in assay [1], in assay [2] and in assay [3] were “no binding (tested: background 0.03 nm at 100 nM mAb)”, “no binding (tested: background 0.03 nm at 100 nM mAb)” and “no binding (tested: 0.03 nm at 100 nM mAb)”, respectively.

B2: H4H15341P (antibody, human IgG4, V domains shown)
VH: EVQLVESGGGLVQPGGSLRLSCAASGFTFNNHEMNWVRQAPGKGLEWVSYISSSGNTVTYADFLKGRFTISRDNAKNSLFLQMNSLRDEDTAVYYCARDHLSGTSPLSYWGQGTLVTVSS
VL: DIQMTQSPSSLSASVGDRVTITCQASQDINNYLNWFQQKPGKAPKLLIFDASNLETGVPSRFSGSGSGTDFTFTISSLQPEDIATYFCQQYENLPYTFGQGTKLEIK
notes: also called anti-hANGPTL8
B2: the binding result with mouse ANGPTL8 was “no binding”; in the assay with human ANGPTL3 it was “no binding”; in the assay with mouse ANGPTL3, “no binding”; in the assay with human ANGPTL4 it was “no binding”; with mouse ANGPTL4, “no binding”; in assay [3], “no binding (tested: 0.03 nm at 100 nM mAb)”.
